Data reported in IntAct's records for PubMed 25910212.

B1: Dual specificity protein phosphatase 23 (Homo sapiens), Q9BVJ7 (parent)
chain: MGVQPPNFSWVLPGRLAGLALPRLPAHYQFLLDLGVRHLVSLTERGPPHSDSCPGLTLHRLRIPDFCPPAPDQIDRFVQIVDEANARGEAVGVHCALGFGRTGTMLACYLVKERGLAAGDAIAEIRRLRPGSIETYEQEKAVFQFYQRTK
B2: Mothers against decapentaplegic homolog 3 (Homo sapiens), P84022 (parent)
chain: MSSILPFTPPIVKRLLGWKKGEQNGQEEKWCEKAVKSLVKKLKKTGQLDELEKAITTQNVNTKCITIPRSLDGRLQVSHRKGLPHVIYCRLWRWPDLHSHHELRAMELCEFAFNMKKDEVCVNPYHYQRVETPVLPPVLVPRHTEIPAEFPPLDDYSHSIPENTNFPAGIEPQSNIPETPPPGYLSEDGETSDHQMNHSMDAGSPNLSPNPMSPAHNNLDLQPVTYCEPAFWCSISYYELNQRVGETFHASQPSMTVDGFTDPSNSERFCLGLLSNVNRNAAVELTRRHIGRGVRLYYIGGEVFAECLSDSAIFVQSPNCNQRYGWHPATVCKIPPGCNLKIFNNQEFAALLAQSVNQGFEAVYQLTRMCTIRMSFVKGWGAEYRRQTVTSTPCWIELHLNGPLQWLDKVLTQMGSPSIRCSSVS
partner: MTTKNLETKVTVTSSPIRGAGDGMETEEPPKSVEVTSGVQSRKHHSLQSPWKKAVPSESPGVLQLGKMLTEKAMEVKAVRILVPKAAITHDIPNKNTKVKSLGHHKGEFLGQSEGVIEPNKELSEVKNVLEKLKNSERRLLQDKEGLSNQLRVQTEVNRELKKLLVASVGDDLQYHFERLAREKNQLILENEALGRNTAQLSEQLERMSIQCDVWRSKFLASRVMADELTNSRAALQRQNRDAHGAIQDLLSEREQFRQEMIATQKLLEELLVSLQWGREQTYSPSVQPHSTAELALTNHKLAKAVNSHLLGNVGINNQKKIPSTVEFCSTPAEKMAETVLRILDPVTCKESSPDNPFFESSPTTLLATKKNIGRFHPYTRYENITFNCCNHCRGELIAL
B3: ATP synthase mitochondrial F1 complex assembly factor 2 (Homo sapiens), Q8N5M1 (parent)
chain: MWRSCLRLRDGGRRLLNRPAGGPSASMSPGPTIPSPARAYAPPTERKRFYQNVSITQGEGGFEINLDHRKLKTPQAKLFTVPSEALAIAVATEWDSQQDTIKYYTMHLTTLCNTSLDNPTQRNKDQLIRAAVKFLDTDTICYRVEEPETLVELQRNEWDPIIEWAEKRYGVEISSSTSIMGPSIPAKTREVLVSHLASYNTWALQGIEFVAAQLKSMVLTLGLIDLRLTVEQAVLLSRLEEEYQIQKWGNIEWAHDYELQELRARTAAGTLFIHLCSESTTVKHKLLKE
partner: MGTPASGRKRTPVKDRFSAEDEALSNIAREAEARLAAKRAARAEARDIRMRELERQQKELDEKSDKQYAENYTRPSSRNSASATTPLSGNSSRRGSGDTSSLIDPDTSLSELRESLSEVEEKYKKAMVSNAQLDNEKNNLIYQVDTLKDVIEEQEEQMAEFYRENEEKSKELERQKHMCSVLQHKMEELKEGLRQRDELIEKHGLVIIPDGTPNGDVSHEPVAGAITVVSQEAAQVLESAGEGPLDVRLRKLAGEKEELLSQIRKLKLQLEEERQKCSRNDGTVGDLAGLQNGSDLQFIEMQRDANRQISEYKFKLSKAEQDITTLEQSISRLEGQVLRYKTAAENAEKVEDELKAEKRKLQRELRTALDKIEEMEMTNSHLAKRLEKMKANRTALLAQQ
B4: Keratin, type I cytoskeletal 18 (Homo sapiens), P05783 (parent)
chain: MSFTTRSTFSTNYRSLGSVQAPSYGARPVSSAASVYAGAGGSGSRISVSRSTSFRGGMGSGGLATGIAGGLAGMGGIQNEKETMQSLNDRLASYLDRVRSLETENRRLESKIREHLEKKGPQVRDWSHYFKIIEDLRAQIFANTVDNARIVLQIDNARLAADDFRVKYETELAMRQSVENDIHGLRKVIDDTNITRLQLETEIEALKEELLFMKKNHEEEVKGLQAQIASSGLTVEVDAPKSQDLAKIMADIRAQYDELARKNREELDKYWSQQIEESTTVVTTQSAEVGAAETTLTELRRTVQSLEIDLDSMRNLKASLENSLREVEARYALQMEQLNGILLHLESELAQTRAEGQRQAQEYEALLNIKVKLEAEIATYRRLLEDGEDFNLGDALDSSNSMQTIQKTTTRRIVDGKVVSETNDTKVLRH
B5: Inactive peptidyl-prolyl cis-trans isomerase FKBP6 (Homo sapiens), O75344 (parent)
chain: MGGSALNQGVLEGDDAPGQSLYERLSQRMLDISGDRGVLKDVIREGAGDLVAPDASVLVKYSGYLEHMDRPFDSNYFRKTPRLMKLGEDITLWGMELGLLSMRRGELARFLFKPNYAYGTLGCPPLIPPNTTVLFEIELLDFLDCAESDKFCALSAEQQDQFPLQKVLKVAATEREFGNYLFRQNRFYDAKVRYKRALLLLRRRSAPPEEQHLVEAAKLPVLLNLSFTYLKLDRPTIALCYGEQALIIDQKNAKALFRCGQACLLLTEYQKARDFLVRAQKEQPFNHDINNELKKLASCYRDYVDKEKEMWHRMFAPCGDGSTAGES
partner: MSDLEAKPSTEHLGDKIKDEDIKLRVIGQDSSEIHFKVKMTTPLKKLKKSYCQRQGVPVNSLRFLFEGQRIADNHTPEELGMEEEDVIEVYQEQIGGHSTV
B6: U4/U6 small nuclear ribonucleoprotein Prp31 (Homo sapiens), Q8WWY3 (parent)
chain: MSLADELLADLEEAAEEEEGGSYGEEEEEPAIEDVQEETQLDLSGDSVKTIAKLWDSKMFAEIMMKIEEYISKQAKASEVMGPVEAAPEYRVIVDANNLTVEIENELNIIHKFIRDKYSKRFPELESLVPNALDYIRTVKELGNSLDKCKNNENLQQILTNATIMVVSVTASTTQGQQLSEEELERLEEACDMALELNASKHRIYEYVESRMSFIAPNLSIIIGASTAAKIMGVAGGLTNLSKMPACNIMLLGAQRKTLSGFSSTSVLPHTGYIYHSDIVQSLPPDLRRKAARLVAAKCTLAARVDSFHESTEGKVGYELKDEIERKFDKWQEPPPVKQVKPLPAPLDGQRKKRGGRRYRKMKERLGLTEIRKQANRMSFGEIEEDAYQEDLGFSLGHLGKSGSGRVRQTQVNEATKARISKTLQRTLQKQSVVYGGKSTIRDRSSGTASSVAFTPLQGLEIVNPQAAEKKVAEANQKYFSSMAEFLKVKGEKSGLMST
partner: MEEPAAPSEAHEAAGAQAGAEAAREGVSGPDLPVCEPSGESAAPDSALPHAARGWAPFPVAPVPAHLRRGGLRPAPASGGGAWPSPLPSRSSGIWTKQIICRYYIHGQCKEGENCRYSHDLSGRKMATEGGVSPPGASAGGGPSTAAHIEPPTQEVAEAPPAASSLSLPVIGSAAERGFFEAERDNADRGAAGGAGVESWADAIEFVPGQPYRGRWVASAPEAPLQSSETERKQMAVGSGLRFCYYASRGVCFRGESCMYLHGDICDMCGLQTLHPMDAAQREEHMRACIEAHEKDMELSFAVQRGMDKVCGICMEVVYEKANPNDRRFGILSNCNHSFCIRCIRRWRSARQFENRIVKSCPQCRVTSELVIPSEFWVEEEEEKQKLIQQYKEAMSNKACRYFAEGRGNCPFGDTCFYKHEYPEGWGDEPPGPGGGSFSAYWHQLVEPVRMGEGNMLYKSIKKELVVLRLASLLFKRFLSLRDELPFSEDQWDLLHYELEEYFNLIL
B7: Adiponectin (Homo sapiens), Q15848 (parent)
chain: MLLLGAVLLLLALPGHDQETTTQGPGVLLPLPKGACTGWMAGIPGHPGHNGAPGRDGRDGTPGEKGEKGDPGLIGPKGDIGETGVPGAEGPRGFPGIQGRKGEPGEGAYVYRSAFSVGLETYVTIPNMPIRFTKIFYNQQNHYDGSTGKFHCNIPGLYYFAYHITVYMKDVKVSLFKKDKAMLFTYDQYQENNVDQASGSVLLHLEVGDQVWLQVYGEGERNGLYADNDNDSTFTGFLLYHDTN
partner: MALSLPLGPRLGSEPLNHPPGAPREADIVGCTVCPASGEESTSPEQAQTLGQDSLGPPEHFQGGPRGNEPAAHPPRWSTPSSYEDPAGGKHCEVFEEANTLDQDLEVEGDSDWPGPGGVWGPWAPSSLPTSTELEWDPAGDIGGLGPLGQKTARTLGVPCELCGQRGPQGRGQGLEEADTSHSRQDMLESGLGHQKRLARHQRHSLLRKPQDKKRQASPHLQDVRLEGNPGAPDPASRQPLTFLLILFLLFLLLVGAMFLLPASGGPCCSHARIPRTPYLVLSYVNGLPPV

Variants of: B1
Details: with exos8_human EXOSC8, Q96B26
Sequence of exos8_human EXOSC8, Q96B26 (Q96B26 whole entry): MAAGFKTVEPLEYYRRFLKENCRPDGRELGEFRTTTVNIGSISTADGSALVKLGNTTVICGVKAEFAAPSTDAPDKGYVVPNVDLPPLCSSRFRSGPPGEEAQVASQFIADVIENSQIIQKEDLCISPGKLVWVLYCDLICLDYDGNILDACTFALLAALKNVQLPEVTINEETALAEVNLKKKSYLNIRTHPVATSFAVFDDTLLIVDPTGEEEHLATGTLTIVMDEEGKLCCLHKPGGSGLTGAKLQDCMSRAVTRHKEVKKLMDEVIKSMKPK

Variant | effect of a mutation on the interaction
G131S | with no effect

Variants of: B2
Details: with go45_human BLZF1, Q9H2G9

Variant | effect of a mutation on the interaction
I170V | with no effect
N197I | with no effect

Variants of: B3
Details: with LRRFIP2, Q9Y608-2

Variant | effect of a mutation on the interaction
W94R | disrupting interaction strength

Variants of: B4
Details: with goga2_human GOLGA2, Q08379
Sequence of goga2_human GOLGA2, Q08379 (Q08379 whole entry): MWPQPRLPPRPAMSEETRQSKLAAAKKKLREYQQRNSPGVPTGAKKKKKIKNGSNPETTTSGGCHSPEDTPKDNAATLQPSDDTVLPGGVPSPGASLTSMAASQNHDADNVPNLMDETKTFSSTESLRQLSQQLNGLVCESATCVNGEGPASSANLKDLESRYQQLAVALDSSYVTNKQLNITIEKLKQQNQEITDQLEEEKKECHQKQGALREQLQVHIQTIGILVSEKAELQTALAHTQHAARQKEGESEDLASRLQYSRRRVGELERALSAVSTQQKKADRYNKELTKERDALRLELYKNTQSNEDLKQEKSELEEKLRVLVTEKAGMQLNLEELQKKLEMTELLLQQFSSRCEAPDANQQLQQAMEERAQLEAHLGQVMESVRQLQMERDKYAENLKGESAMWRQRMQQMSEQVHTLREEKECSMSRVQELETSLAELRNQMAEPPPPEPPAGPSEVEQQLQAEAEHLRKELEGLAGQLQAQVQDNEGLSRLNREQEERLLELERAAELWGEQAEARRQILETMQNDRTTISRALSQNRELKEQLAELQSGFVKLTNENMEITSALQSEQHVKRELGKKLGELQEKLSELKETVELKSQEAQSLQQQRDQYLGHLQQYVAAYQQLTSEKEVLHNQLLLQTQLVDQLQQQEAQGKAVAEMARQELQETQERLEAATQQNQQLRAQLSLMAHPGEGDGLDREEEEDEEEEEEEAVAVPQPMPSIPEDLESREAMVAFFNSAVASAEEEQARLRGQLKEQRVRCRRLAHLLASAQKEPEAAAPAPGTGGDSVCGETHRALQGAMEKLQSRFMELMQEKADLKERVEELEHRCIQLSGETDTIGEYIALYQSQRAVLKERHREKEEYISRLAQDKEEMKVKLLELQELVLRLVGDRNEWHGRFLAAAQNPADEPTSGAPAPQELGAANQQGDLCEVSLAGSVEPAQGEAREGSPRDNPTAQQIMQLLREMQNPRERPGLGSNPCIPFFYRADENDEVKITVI

effect of a mutation on the interaction | Variant
disrupting interaction strength | G340R
disrupting interaction strength | Q285R

Second part, the variant before the results:

Variant | effect of a mutation on the interaction
T103A | disrupting interaction strength
H128L | with no effect

Variants of: B4
Details: with hgs_human HGS

effect of a mutation on the interaction | Variant
disrupting interaction strength | G340R
disrupting interaction strength | Q285R

More lines, now with the values behind:

Variant | effect of a mutation on the interaction
T103A | disrupting interaction strength
H128L | with no effect

Variants of: B4
Details: with syce1_human SYCE1, Q8N0S2
Sequence of syce1_human SYCE1, Q8N0S2 (Q8N0S2 whole entry): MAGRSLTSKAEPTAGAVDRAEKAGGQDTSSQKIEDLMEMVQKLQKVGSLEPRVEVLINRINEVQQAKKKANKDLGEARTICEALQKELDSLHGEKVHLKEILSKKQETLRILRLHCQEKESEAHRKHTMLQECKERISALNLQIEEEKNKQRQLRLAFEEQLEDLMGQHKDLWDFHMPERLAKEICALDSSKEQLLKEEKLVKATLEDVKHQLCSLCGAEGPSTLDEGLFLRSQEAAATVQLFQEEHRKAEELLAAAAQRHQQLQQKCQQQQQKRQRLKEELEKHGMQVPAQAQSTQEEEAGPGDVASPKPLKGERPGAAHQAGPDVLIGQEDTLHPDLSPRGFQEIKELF

effect of a mutation on the interaction | Variant
with no effect | G340R
with no effect | Q285R

Further lines, the variant ahead of its results:

Variant | effect of a mutation on the interaction
T103A | disrupting interaction strength
H128L | with no effect

Variants of: B5
Details: with sumo5_human SUMO1P1, G2XKQ0

Variant | effect of a mutation on the interaction
F72L | disrupting interaction strength
R202H | with no effect

Variants of: B6
Details: with mkrn3_human MKRN3, Q13064

Variant | effect of a mutation on the interaction
L107V | with no effect

Variants of: B7
Details: with SYNE4, Q8N205-2

Variant | effect of a mutation on the interaction
Y111H | with no effect
